{"source": "IntAct's records for PubMed 15582318", "parents": {"B1": {"name": "Telethonin (Homo sapiens), O15273 (parent)", "chain": "MATSELSCEVSEENCERREAFWAEWKDLTLSTRPEEGCSLHEEDTQRHETYHQQGQCQVLVQRSPWLMMRMGILGRGLQEYQLPYQRVLPLPIFTPAKMGATKEEREDTPIQLQELLALETALGGQCVDRQEVAEITKQLPPVVPVSKPGALRRSLSRSMSQEAQRG"}, "B2": {"name": "Telethonin (Homo sapiens), O15273 (parent)", "chain": "B1 chain", "partner": "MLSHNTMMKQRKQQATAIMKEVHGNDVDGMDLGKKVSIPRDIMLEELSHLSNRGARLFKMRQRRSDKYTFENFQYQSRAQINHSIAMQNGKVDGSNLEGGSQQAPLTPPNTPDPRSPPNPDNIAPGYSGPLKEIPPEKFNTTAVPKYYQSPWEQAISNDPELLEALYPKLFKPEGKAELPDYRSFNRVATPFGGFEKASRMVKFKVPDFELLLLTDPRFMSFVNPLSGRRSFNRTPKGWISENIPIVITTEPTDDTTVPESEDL"}}, "data": [{"variants_of": "B1", "settings": "with titin_human TTN", "values": [{"variant": "T137I", "effect of a mutation on the interaction": "increasing interaction strength"}, {"variant": "R87Q", "effect of a mutation on the interaction": "decreasing interaction strength"}, {"variant": "E132Q", "effect of a mutation on the interaction": "decreasing interaction strength"}, {"variant": "R153H", "effect of a mutation on the interaction": "increasing interaction strength"}]}, {"variants_of": "B1", "settings": "with csrp3_human CSRP3, P50461", "values": [{"variant": "R87Q", "effect of a mutation on the interaction": "decreasing interaction strength"}, {"variant": "E132Q", "effect of a mutation on the interaction": "decreasing interaction strength"}]}, {"variants_of": "B2", "settings": "with myoz2_human MYOZ2, Q9NPC6", "values": [{"variant": "T137I", "effect of a mutation on the interaction": "increasing interaction strength"}, {"variant": "R153H", "effect of a mutation on the interaction": "increasing interaction strength"}, {"variant": "R87Q", "effect of a mutation on the interaction": "decreasing interaction strength"}, {"variant": "E132Q", "effect of a mutation on the interaction": "decreasing interaction strength"}]}]}
